Values quoted from earlier work, collected in US20070166367A1, “Adept or gdept producing acetaldehyde” (priority 2004, published 2007).
Read-outs that look alike come from different tables or passages of the source.

B1: Human B2: human alcohol dehydrogenase β2, atypical liver class I enzyme, B2B2 homodimer (protein, UniProt P00325 2-375, looked up)
All-trans-retinol …: STAGKVIKCKAAVLWEVKKPFSIEDVEVAPPKAYEVRIKMVAVGICHTDDHVVSGNLVTPLPVILGHEAAGIVESVGEGVTTVKPGDKVIPLFTPQCGKCRVCKNPESNYCLKNDLGNPRGTLQDGTRRFTCRGKPIHHFLGTSTFSQYTVVDENAVAKIDAASPLEKVCLIGCGFSTGYGSAVNVAKVTPGSTCAVFGLGGVGLSAVMGCKAAGAARIIAVDINKDKFAKAKELGATECINPQDYKKPIQEVLKEMTDGGVDFSFEVIGRLDTMMASLLCCHEACGTSVIVGVPPASQNLSINPMLLLTGRTWKGAVYGGFKSKEGIPKLVADFMAKKFSLDALITHVLPFEKINEGFDLLHSGKSIRTVLTF
modifications: beta2 allele homodimer
B2: Human B1: usual human alcohol dehydrogenase B1 isoenzyme (protein, UniProt P00325 2-375, looked up)
All-trans-retinol …: B1 All-trans-retinol …
B3: Human class IV: human class IV alcohol dehydrogenase (protein, UniProt P40394 1-386, looked up)
All-trans-retinol …: MFAEIQIQDKDRMGTAGKVIKCKAAVLWEQKQPFSIEEIEVAPPKTKEVRIKILATGICRTDDHVIKGTMVSKFPVIVGHEATGIVESIGEGVTTVKPGDKVIPLFLPQCRECNACRNPDGNLCIRSDITGRGVLADGTTRFTCKGKPVHHFMNTSTFTEYTVVDESSVAKIDDAAPPEKVCLIGCGFSTGYGAAVKTGKVKPGSTCVVFGLGGVGLSVIMGCKSAGASRIIGIDLNKDKFEKAMAVGATECISPKDSTKPISEVLSEMTGNNVGYTFEVIGHLETMIDALASCHMNYGTSVVVGVPPSAKMLTYDPMLLFTGRTWKGCVFGGLKSRDDVPKLVTEFLAKKFDLDQLITHVLPFKKISEGFELLNSGQSIRTVLTF

Molecule | enzymatic rate relative to the usual human ADH enzymes ('physiological' ethanol concentrations) | Km (for ethanol) | Vmax relative to the usual human alpha, beta and gamma variants (pH 7.5) | Km
B1 | at least 16 fold | 940 µM | (Note at pH 7.5 the Vmax of beta 2 is 5-40 times higher that the usual human alpha, beta and gamma variants) | –
B2 | – | – | – | 49 µM
B3 | – | 37000 µM | – | –
